From patent US20190218304A1, “POTENTIATING THE EFFECT OF ATP RELEASE” (INNATE PHARMA, priority 2017, published 2019)

Molecular target: T1, Human CD39-L3, also known as NTPDase3 or ENTPD3 (Homo sapiens, UniProt O75355)
T1 sequence (O75355 1-529): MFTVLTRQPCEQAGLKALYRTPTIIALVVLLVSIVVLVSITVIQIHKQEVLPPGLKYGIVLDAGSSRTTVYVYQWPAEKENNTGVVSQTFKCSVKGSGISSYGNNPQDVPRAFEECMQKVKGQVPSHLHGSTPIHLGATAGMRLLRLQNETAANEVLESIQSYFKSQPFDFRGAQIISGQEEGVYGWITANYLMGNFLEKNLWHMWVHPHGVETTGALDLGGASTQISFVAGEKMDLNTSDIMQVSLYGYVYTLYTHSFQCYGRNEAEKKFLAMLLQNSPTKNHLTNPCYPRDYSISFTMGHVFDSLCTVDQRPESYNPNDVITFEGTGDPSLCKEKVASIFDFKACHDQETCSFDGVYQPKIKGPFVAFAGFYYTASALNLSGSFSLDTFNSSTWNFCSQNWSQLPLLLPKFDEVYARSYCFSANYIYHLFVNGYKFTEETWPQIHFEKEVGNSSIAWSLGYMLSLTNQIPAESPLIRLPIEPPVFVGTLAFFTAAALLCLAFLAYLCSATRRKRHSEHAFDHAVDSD
Test: ELISA titration on CD39-L3
Type: binding
Settings: coated recombinant protein, OD=450
Description: Wells were washed in TBS Tween 20, and further saturated 2H at RT in TBS Blocking buffer. Dose range concentration of primary antibody was incubated in TBS blocking buffer for 2 h at RT. Wells were washed in TBS Tween 20. […] Optical density was measured on Enspire™ at OD=450.

B1: I-394: anti-CD39 antibody, VH SEQ ID NO: 3, VL SEQ ID NO: 4; heavy and light chains SEQ ID NOS: 37 and 38 (antibody)
heavy: EVQLQQSGPELVKPGASVKMSCKASGYTFTDYNMHWVKQSHGRTLEWIGYIVPLNGGSTFNQKFKGRATLTVNTSSRTAYMELRSLTSEDSAAYYCARGGTRFAYWGQGTLVTVSAASTKGPSVFPLAPSSKSTSGGTAALGCLVKDYFPEPVTVSWNSGALTSGVHTFPAVLQSSGLYSLSSVVTVPSSSLGTQTYICNVNHKPSNTKVDKRVEPKSCDKTHTCPPCPAPEAEGAPSVFLFPPKPKDTLMISRTPEVTCVVVDVSHEDPEVKFNWYVDGVEVHNAKTKPREEQYNSTYRVVSVLTVLHQDWLNGKEYKCKVSNKALPSSIEKTISKAKGQPREPQVYTLPPSREEMTKNQVSLTCLVKGFYPSDIAVEWESNGQPENNYKTTPPVLDSDGSFFLYSKLTVDKSRWQQGNVFSCSVMHEALHNHYTQKSLSLSPGK
light: DIVLTQSPASLAVSLGQRATISCRASESVDNFGVSFMYWFQQKPGQPPNLLIYGASNQGSGVPARFRGSGSGTDFSLNIHPMEADDTAMYFCQQTKEVPYTFGGGTKLEIKRTVAAPSVFIFPPSDEQLKSGTASVVCLLNNFYPREAKVQWKVDNALQSGNSQESVTEQDSKDSTYSLSSTLTLSKADYEKHKVYACEVTHQGLSSPVTKSFNRGEC
modifications: Chimeric homo sapiens mus musculus
binding to CD39-L3 in ELISA: not to any of the human isoforms
